Values quoted from earlier work, collected in article PMC6776250.

Biological target: RNase Y (Bacillus subtilis) (UniProt O31774)
Assay: SPR

Sequence of UniProt O31774 (O31774 whole entry): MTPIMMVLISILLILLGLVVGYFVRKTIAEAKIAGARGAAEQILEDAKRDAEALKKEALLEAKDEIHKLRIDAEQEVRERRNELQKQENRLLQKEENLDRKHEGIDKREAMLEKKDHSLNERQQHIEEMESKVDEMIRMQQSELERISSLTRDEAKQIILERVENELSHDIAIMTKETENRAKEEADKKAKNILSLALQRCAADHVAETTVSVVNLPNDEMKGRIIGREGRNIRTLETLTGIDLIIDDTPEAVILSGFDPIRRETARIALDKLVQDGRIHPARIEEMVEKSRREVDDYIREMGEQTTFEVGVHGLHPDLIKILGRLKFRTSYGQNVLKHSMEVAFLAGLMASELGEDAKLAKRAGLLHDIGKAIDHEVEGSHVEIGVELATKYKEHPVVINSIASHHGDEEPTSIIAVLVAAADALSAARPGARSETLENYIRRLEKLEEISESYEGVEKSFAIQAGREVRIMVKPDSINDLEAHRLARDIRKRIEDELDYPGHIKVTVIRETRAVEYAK

For PNPase (from UniProt P50849), the Kd is listed as 5 nM.
